Target: Biotin-Lysozyme (hen) (UniProt P00698)
Assay: flow
Settings: scFv

Chain of Biotin-Lysozyme (hen) (P00698 19-147): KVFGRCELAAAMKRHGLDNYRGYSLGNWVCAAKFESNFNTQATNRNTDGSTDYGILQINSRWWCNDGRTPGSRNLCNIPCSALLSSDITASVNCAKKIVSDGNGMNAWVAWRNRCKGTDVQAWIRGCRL

| Kd [nM] | Substance |
| --- | --- |
| 0.5 | scFv D1.3 (from UniProt P32781 19-87) |
| 0.5 | scFv D1.3 (from UniProt P42212 1-238; P32781 19-87) |
